From US9650447 (dated 2017)

Legend:
C3d [1] = molecular target: T1, C3d (human, UniProt P01024); assay: other (NMR titration, weak site)
C3d [2] = molecular target: T1, C3d; assay: ITC, two-site fit, weak site
EBV gp350 [3] = molecular target: T2, EBV gp350 (Epstein-Barr virus, UniProt P03200); assay: ITC
T2 chain: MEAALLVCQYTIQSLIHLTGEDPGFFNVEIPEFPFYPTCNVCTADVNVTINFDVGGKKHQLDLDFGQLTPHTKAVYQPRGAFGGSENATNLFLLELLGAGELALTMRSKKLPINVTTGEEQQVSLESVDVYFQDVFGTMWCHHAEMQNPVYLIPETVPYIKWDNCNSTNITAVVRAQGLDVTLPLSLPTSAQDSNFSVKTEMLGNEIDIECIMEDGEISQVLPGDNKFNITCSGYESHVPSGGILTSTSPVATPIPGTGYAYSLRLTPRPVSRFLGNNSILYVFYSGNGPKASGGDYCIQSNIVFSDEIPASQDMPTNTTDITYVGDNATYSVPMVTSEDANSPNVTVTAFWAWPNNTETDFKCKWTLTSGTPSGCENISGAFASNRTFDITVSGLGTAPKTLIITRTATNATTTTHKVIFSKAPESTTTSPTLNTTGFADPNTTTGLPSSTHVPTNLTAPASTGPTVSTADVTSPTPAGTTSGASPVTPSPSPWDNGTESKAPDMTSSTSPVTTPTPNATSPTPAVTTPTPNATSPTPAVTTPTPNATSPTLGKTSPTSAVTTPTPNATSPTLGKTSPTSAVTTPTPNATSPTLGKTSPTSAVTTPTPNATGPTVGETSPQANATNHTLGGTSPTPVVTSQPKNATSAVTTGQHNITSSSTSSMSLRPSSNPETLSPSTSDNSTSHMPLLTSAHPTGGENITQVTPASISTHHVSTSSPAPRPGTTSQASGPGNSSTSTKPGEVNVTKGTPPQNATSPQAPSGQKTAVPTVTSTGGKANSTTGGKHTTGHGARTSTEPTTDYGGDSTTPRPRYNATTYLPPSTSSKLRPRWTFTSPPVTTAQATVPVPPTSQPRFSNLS

C3d [4] = molecular target: T1, C3d; assay: ITC, two-site fit, tight site
C3d [5] = molecular target: T1, C3d; assay: other (NMR titration, tight site, upper limit)
EBV gp350 [6] = molecular target: T2, EBV gp350; assay: other (NMR titration, upper limit)

T1 sequence (P01024 1002-1303): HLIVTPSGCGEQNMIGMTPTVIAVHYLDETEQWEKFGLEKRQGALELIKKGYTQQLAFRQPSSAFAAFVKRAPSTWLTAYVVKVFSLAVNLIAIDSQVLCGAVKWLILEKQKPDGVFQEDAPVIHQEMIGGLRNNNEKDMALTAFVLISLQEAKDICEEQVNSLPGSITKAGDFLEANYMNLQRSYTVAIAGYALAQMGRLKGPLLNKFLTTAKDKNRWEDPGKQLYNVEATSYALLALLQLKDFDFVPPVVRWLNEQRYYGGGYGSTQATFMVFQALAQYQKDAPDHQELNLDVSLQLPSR

B1: human CR2 SCR1-2 (protein)
chain: ISCGSPPPILNGRISYYSTPIAVGTVIRYSCSGTFRLIGEKSLLCITKDKVDGTWDKPAPKCEYFNKYSSCPEPIVPGGYKIRGSTPYRHGDSVTFACKTNFSMNGNKSVWCQANNMWGPTRLPTCVS
- Kd (C3d [1]): 130 µM
- Kd (C3d [2]): 160 µM
- Kd (EBV gp350 [3]): 0.014 µM
- Kd (C3d [4]): 0.13 µM
- Kd (C3d [5]): < 45 µM
- Kd (EBV gp350 [6]): < 60 µM
